T1: DQA1*0102/DQB1*0602 (human, UniProt P01920 33-230, limits assumed)
T1 construct: human MHC class II allotype
T1 MHC II alpha: not shown
T1 MHC II beta: not shown


Each binder was assayed against T2, HLA-DRB1*0301 (human) (assay: competitive MHC class II binding assay).
T2 construct: human MHC class II allotype

Binder | binding result
KAVDEAVAAIEKS [HDM28] | no binding
ANVKSEDGVVKAH [HDM37] | no binding
KDLDAFRHYDGRT [HDM12] | no binding
EYIQHNGVVQESY [HDM05] | no binding
PNVNKIREALAQT [HDM07] | no binding
RNSWDTNWGDNGYG [HDM16A] | no binding
KVLAPAFKKELER [HDM50] | no binding
IGIIDLKGELDMRN [HDM31] | no binding
IGIKDLDAFRHYD [HDM11] | no binding
AKIEIKASLDGLE [HDM27] | no binding
KSETFDPMKVPDHSD [HDM29B] | no binding
ETFDPMKVPDHSD [HDM29] | no binding
NKIREALAQTHSA [HDM08] | no binding
NSVNVPSELDLRSLRT [HDM17] | no binding
IDLKGELDMRNIQVR [HDM32A] | no binding
HIGIIDLKGELDMRN [HDM31A] | no binding
ETFDPMKVPDHSDK [HDM29A] | no binding
KRVGDANVKSEDG [HDM36] | no binding
RTIIQRDNGYQPNY (solubility test: NO) [HDM13] | no binding

What follows are binders tested against T3, HLA-DRB1*0701 (human) (assay: competitive MHC class II binding assay).
T3 construct: human MHC class II allotype

Binder | binding result
KAVDEAVAAIEKS [HDM28] | no binding
ANVKSEDGVVKAH [HDM37] | no binding
KDLDAFRHYDGRT [HDM12] | no binding
EYIQHNGVVQESY [HDM05] | no binding
PNVNKIREALAQT [HDM07] | no binding
RNSWDTNWGDNGYG [HDM16A] | no binding
KVLAPAFKKELER [HDM50] | no binding
IGIIDLKGELDMRN [HDM31] | no binding
IGIKDLDAFRHYD [HDM11] | no binding
AKIEIKASLDGLE [HDM27] | no binding
KSETFDPMKVPDHSD [HDM29B] | no binding
ETFDPMKVPDHSD [HDM29] | no binding
NKIREALAQTHSA [HDM08] | no binding
NSVNVPSELDLRSLRT [HDM17] | no binding
IDLKGELDMRNIQVR [HDM32A] | no binding
HIGIIDLKGELDMRN [HDM31A] | no binding
ETFDPMKVPDHSDK [HDM29A] | no binding
KRVGDANVKSEDG [HDM36] | no binding
RTIIQRDNGYQPNY (solubility test: NO) [HDM13] | no binding

Each binder was assayed against T4, HLA-DRB1*1301 (human) (assay: competitive MHC class II binding assay).
T4 construct: human MHC class II allotype

Binder | binding result
KAVDEAVAAIEKS [HDM28] | no binding
ANVKSEDGVVKAH [HDM37] | no binding
KDLDAFRHYDGRT [HDM12] | no binding
EYIQHNGVVQESY [HDM05] | no binding
PNVNKIREALAQT [HDM07] | no binding
RNSWDTNWGDNGYG [HDM16A] | no binding
KVLAPAFKKELER [HDM50] | no binding
IGIIDLKGELDMRN [HDM31] | no binding
IGIKDLDAFRHYD [HDM11] | no binding
AKIEIKASLDGLE [HDM27] | no binding
KSETFDPMKVPDHSD [HDM29B] | no binding
ETFDPMKVPDHSD [HDM29] | no binding
NKIREALAQTHSA [HDM08] | no binding
NSVNVPSELDLRSLRT [HDM17] | no binding
IDLKGELDMRNIQVR [HDM32A] | no binding
HIGIIDLKGELDMRN [HDM31A] | no binding
ETFDPMKVPDHSDK [HDM29A] | no binding
KRVGDANVKSEDG [HDM36] | no binding
RTIIQRDNGYQPNY (solubility test: NO) [HDM13] | no binding

What follows are binders tested against T5, HLA-DRB1*1501 (human) (assay: competitive MHC class II binding assay).
T5 construct: human MHC class II allotype

Binder | binding result
KAVDEAVAAIEKS [HDM28] | no binding
ANVKSEDGVVKAH [HDM37] | no binding
KDLDAFRHYDGRT [HDM12] | no binding
EYIQHNGVVQESY [HDM05] | no binding
PNVNKIREALAQT [HDM07] | no binding
RNSWDTNWGDNGYG [HDM16A] | no binding
KVLAPAFKKELER [HDM50] | no binding
IGIIDLKGELDMRN [HDM31] | no binding
IGIKDLDAFRHYD [HDM11] | no binding
AKIEIKASLDGLE [HDM27] | no binding
KSETFDPMKVPDHSD [HDM29B] | no binding
ETFDPMKVPDHSD [HDM29] | no binding
NKIREALAQTHSA [HDM08] | no binding
NSVNVPSELDLRSLRT [HDM17] | no binding
IDLKGELDMRNIQVR [HDM32A] | no binding
HIGIIDLKGELDMRN [HDM31A] | no binding
ETFDPMKVPDHSDK [HDM29A] | no binding
KRVGDANVKSEDG [HDM36] | no binding
RTIIQRDNGYQPNY (solubility test: NO) [HDM13] | no binding

These binders were tested against T6, HLA-DRB1*0101 (human) (assay: competitive MHC class II binding assay).
T6 construct: human MHC class II allotype

Binder | binding result
KAVDEAVAAIEKS [HDM28] | no binding
ANVKSEDGVVKAH [HDM37] | no binding
KDLDAFRHYDGRT [HDM12] | no binding
EYIQHNGVVQESY [HDM05] | no binding
PNVNKIREALAQT [HDM07] | no binding
RNSWDTNWGDNGYG [HDM16A] | no binding
KVLAPAFKKELER [HDM50] | no binding
IGIIDLKGELDMRN [HDM31] | no binding
IGIKDLDAFRHYD [HDM11] | no binding
AKIEIKASLDGLE [HDM27] | no binding
KSETFDPMKVPDHSD [HDM29B] | no binding
ETFDPMKVPDHSD [HDM29] | no binding
NKIREALAQTHSA [HDM08] | no binding
NSVNVPSELDLRSLRT [HDM17] | no binding
IDLKGELDMRNIQVR [HDM32A] | no binding
HIGIIDLKGELDMRN [HDM31A] | no binding
ETFDPMKVPDHSDK [HDM29A] | no binding
KRVGDANVKSEDG [HDM36] | no binding
RTIIQRDNGYQPNY (solubility test: NO) [HDM13] | no binding

The binders below were run against T7, HLA-DRB1*0401 (human) (assay: competitive MHC class II binding assay).
T7 construct: human MHC class II allotype

Binder | binding result
KAVDEAVAAIEKS [HDM28] | no binding
ANVKSEDGVVKAH [HDM37] | no binding
KDLDAFRHYDGRT [HDM12] | no binding
EYIQHNGVVQESY [HDM05] | no binding
PNVNKIREALAQT [HDM07] | no binding
RNSWDTNWGDNGYG [HDM16A] | no binding
KVLAPAFKKELER [HDM50] | no binding
IGIIDLKGELDMRN [HDM31] | no binding
IGIKDLDAFRHYD [HDM11] | no binding
AKIEIKASLDGLE [HDM27] | no binding
KSETFDPMKVPDHSD [HDM29B] | no binding
ETFDPMKVPDHSD [HDM29] | no binding
NKIREALAQTHSA [HDM08] | no binding
NSVNVPSELDLRSLRT [HDM17] | no binding
IDLKGELDMRNIQVR [HDM32A] | no binding
HIGIIDLKGELDMRN [HDM31A] | no binding
ETFDPMKVPDHSDK [HDM29A] | no binding
KRVGDANVKSEDG [HDM36] | no binding
RTIIQRDNGYQPNY (solubility test: NO) [HDM13] | no binding

Each binder was assayed against T8, HLA-DRB1*1101 (human) (assay: competitive MHC class II binding assay).
T8 construct: human MHC class II allotype

Binder | binding result
KAVDEAVAAIEKS [HDM28] | no binding
ANVKSEDGVVKAH [HDM37] | no binding
KDLDAFRHYDGRT [HDM12] | no binding
EYIQHNGVVQESY [HDM05] | no binding
PNVNKIREALAQT [HDM07] | no binding
RNSWDTNWGDNGYG [HDM16A] | no binding
KVLAPAFKKELER [HDM50] | no binding
IGIIDLKGELDMRN [HDM31] | no binding
IGIKDLDAFRHYD [HDM11] | no binding
AKIEIKASLDGLE [HDM27] | no binding
KSETFDPMKVPDHSD [HDM29B] | no binding
ETFDPMKVPDHSD [HDM29] | no binding
NKIREALAQTHSA [HDM08] | no binding
NSVNVPSELDLRSLRT [HDM17] | no binding
IDLKGELDMRNIQVR [HDM32A] | no binding
HIGIIDLKGELDMRN [HDM31A] | no binding
ETFDPMKVPDHSDK [HDM29A] | no binding
KRVGDANVKSEDG [HDM36] | no binding
RTIIQRDNGYQPNY (solubility test: NO) [HDM13] | no binding

Biological target: T1, DQA1*0102/DQB1*0602
Experiment: competitive MHC class II binding assay

Binder | binding result
KAVDEAVAAIEKS [HDM28] | no binding
ANVKSEDGVVKAH [HDM37] | no binding
KDLDAFRHYDGRT [HDM12] | no binding
EYIQHNGVVQESY [HDM05] | no binding
PNVNKIREALAQT [HDM07] | no binding
RNSWDTNWGDNGYG [HDM16A] | no binding
KVLAPAFKKELER [HDM50] | no binding
IGIIDLKGELDMRN [HDM31] | no binding
IGIKDLDAFRHYD [HDM11] | no binding
AKIEIKASLDGLE [HDM27] | no binding
KSETFDPMKVPDHSD [HDM29B] | no binding
ETFDPMKVPDHSD [HDM29] | no binding
NKIREALAQTHSA [HDM08] | no binding
NSVNVPSELDLRSLRT [HDM17] | no binding
IDLKGELDMRNIQVR [HDM32A] | no binding
HIGIIDLKGELDMRN [HDM31A] | no binding
ETFDPMKVPDHSDK [HDM29A] | no binding
KRVGDANVKSEDG [HDM36] | no binding
RTIIQRDNGYQPNY (solubility test: NO) [HDM13] | no binding

Biological target: T1, DQA1*0102/DQB1*0602
Experiment: competitive MHC class II binding assay; competitor: control peptide Human Insulin B 1-15

Binder | ratio of IC50 to that of the control peptide [ratio]
RNQSLDLAEQELVDCASQH [HDM03C] | 0.16
RYVAREQSCRRPN [HDM06] | 0.86
HDDVVSMEYDLAYKL [HDM39A] | 0.1

These binders were tested against T3, HLA-DRB1*0701 (assay: competitive MHC class II binding assay; competitor: control peptide Influenza haemagglutinin 307-319;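 on ratio of IC50 to that of the control peptide: each peptide was tested for its capacity to displace a known reference binder from human MHC class II allotypes, and its IC50 is expressed relative to that of the reference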).

Binder | ratio of IC50 to that of the control peptide [ratio]
VDFKGELAMRNIE [HDM51] | 20.9
DKFERHIGIIDLK [HDM30] | 6.2
HDDVVSMEYDLAYKL [HDM39A] | 0.71
VSMEYDLAYKLGDLH [HDM40A] | 2.29

Each binder was assayed against T7, HLA-DRB1*0401 in the same assay as above.

Binder | ratio of IC50 to that of the control peptide [ratio]
EAVFEANQNTKTAK [HDM22A] | 329
HDDVVSMEYDLAYKL [HDM39A] | 76.2

What follows are binders tested against T8, HLA-DRB1*1101 in the same assay as above.

Binder | ratio of IC50 to that of the control peptide [ratio]
RGLKQMKRVGDAN [HDM35] | 1.26
EAVFEANQNTKTAK [HDM22A] | 80
RYVAREQSCRRPN [HDM06] | 30.4
VDFKGELAMRNIE [HDM51] | 30.9
VSMEYDLAYKLGDLH [HDM40A] | 6
